Reference: the DeepSol protein solubility set

Assay: soluble on expression in E. coli; label from the status in PepcDB or PDB records

Sequence	soluble on expression in E. coli
MSLLEWDLSALFHDKEALQNFTQDQIQQSLNFKKNYENKLYTLNANEFLQALKDYENLNQALGKIMTYAYLLFAKNTQNGSFYAQYEEECKKIEENLLFFELEFCELAPEKSREFTTFCKDYDFYLSNLLQNKRYNLSKNEERIMLYLSNTGANAFSRLFDESMSALKIPFEGKKLSEEEILSKMYDENRKIRKKAAKKFSKVLQKNSRLLSFIINMIKTERKNISLLRGYENAEISRHISNQISQKSVDSLIASAQKHFNLVSQFYKRKKQILGYDELKDYDRYAPIGKEASFDFKTSKNIVLEAFQAFSPQFYDIAKNAFDQGWIDVYPQENKQGGAFSHSATSDAHPFVLLNHTNKRRDLFTLAHELGHTIHQKLSYNVSYLNQNTPLTTAETASVFAEMLVFDFIKDKLKKEELLSLYANKIEDIFATFYRQINFTCFERRLHAQENELSTEEINKIWMEESQKMFQDSVKLTKNYASWWSYIPHFIHSPFYCYAYAYAQLLVLALYGLYKSKKCENFKELYIKMLSLGGSVSPKELVGMFGFDIEDENFWEIGIKEIQKLINEFMELQSEGHHHHHH	soluble
MGSDKIHHHHHHVCRNCSNKQKIRKNSMDYTDISILHTNDMHSYMENFPKKAQLIANIRARNEKEGVPTFVFDSGDLFSGNIFFNMYRGVKEIELMNQIGCQAMTLGNHEFDHGDELISRLDDYAQFPIVSSNLRYQDVEVADELVPLEDVLEFDMNGKNLYVLGLTTLETQEVASPSENVIFEDHKQALRRLVDQIVSQNPSAHLVLLSHLGYDEDVHLAKDFPELNVILGGHTHTILKQPSQIGGVSICQAGQYGRFVGHLSLRCFADGRREVQAYDLIEVEKLTQEDRAVKAIIDQMKSERDAAFSKPIAILPQALDGERDSIRQGLSTLAPVICQALFEQASQLGLQADGAVINGFGIRASLSAGPIFYSDLVKVLPFSKRVLLVRIKGRDLLSSLQTGLHPQMWGIVQSGEDLLVNGRAVESDKDYQIVTNSFVWSGKDNYDDFHKAEIVQDLGLDIDIISEFFKRQYGG	not soluble
MGSDKIHHHHHHMLNWSHLPAIKPKYLAITQFIKQAIQNGDLLPGQRLPAERELATLLHVDRSTVTRALLDLAAVGILVKKRGSGTFVAQLPHVNQLANKVNWQAFLENTTATRHATYQRKLAKARTTATVPLIDAAANELPTNLIPQLGTLTLDWQGFLTAQQQEERTGYLPLMQTINRYHTARQQFTLDRQSLIITGGAQQALLLILNSLLQPGDAVAFVTPSYFSASAVFSAAGVRAYTIPTTTLGLDLTALETAIIKHRIKLLILNPTLQNPTGRILPLAERQAILALCQRYQVAIVEDDVFGWLVDRDIAVPPFKALAPDNVIYISSLSKLLGSNTRIGWIVAPQAIGERIRQVQKNLDLVPSLLAQVMVDHALNSPEFSLGVTQLTTQLAQRRQNVTAILRQLRPDWHFVTPLGGFYLWVTQADRNVFEHLLEQHLLVTPGPIYGADRSAFRFNFAGLDYRQQRLLIQRLS	not soluble
MGSDKIHHHHHHMGTHTEAMPSTTFAQTAVLSQRQRATLNALSAFPQGAQVSEIAASLGLHVNTVRGHLEELVTKNLVRTAPLPSTGRGRPVLMYHATSATPETVAQEYLSLISLLIQHIDLRQPDEIDEVAKVLGKQWAHSIFADHHLEELNGEQTLITLINYLRHLGFDPEVEKTQDPTTSMLQLRTCPFGSMAHAPLSFVCRAHEGMLSAVEKTGGISFELTPLSAPHQCSIVAQLHGNETIHRQRGEEHPHAGHR	not soluble
ELPKKRELCKFYITGFCARAENCPYMHGDFPCKLYHTTGNCINGDDCMFSHDPLTEETRELLDKMLADDAEAGAEDEKEVEELKK	soluble
MSLTHTSDKHVTDEELELVTRGKADGIYMKAPNGSPTSLNERQWVQVRTRAFKNWFGDWENVPEAASRIPDDKYGNEQWTEEGYVYDLYVNSRNPFDPKDGQAVKKILQSLGSEIPVLSFYGGKGGTVSPEKALELASSKRNCWMLTETPEFLSKVREAGYDGLVGYDEGVKYIAVMSPGQLKDAYENTGAFSTSNDDIRFRQVYHGSPASLGHFDHAFTGTGEGAQAYGWGTYVTEVKGIARKYAAIGIKRGNHITYDGEPLSPVLDNEYYFDEVWRIWKRQILSSTDVDSLKRNISSVYMDGRTASAYSGRRKAFERQKQELLSDIDAGRIRIEPPRHLYTVEIPEDNGMNYLYWDRPVSAEQQGKIFLQLRKERFFFPEATAEFWSGRSHVWNSGKEFYGFLDYMFMNPDRDTDSQRLASGFLSRAGFTGIDYPAECSTGGRADGARNYVIFSEADLKITAHERFRFIGEKGASRLDRSEGASLRLENLAVAREMEKSGKDAGTIKAATGWERGADSKWRYETADFEYHPAGDLGYSRLLEKQSWHGELENLLDRQIEGETLSEAEWKRFEKLTELAAGLKEQDALRERIYLDDYVKDDELFQAYPEMKRTRLEFVDLPSADYCGGYLHPDNRIVINISRTDDVRSVLAHEIQHAIQTMEGFARGSNPGEFKNTVENVILDIVRATDGRILEGGGFDNTPKGIFAALDRKVPYGTILRHYDYPLSLVAEKYGYENIFDLVNDIGRFKSGIQEYRSTAGEVEARNVESRLDFTSAQRRNTLAVSTEDIARNGQIFLSRDVRMDELARHVSFLAGKLHIPVEVIRHADEVGSPDIRGLLSCGKDIRGWYDIPSQRVCLYLPHVRGKADVERTLLHEGVAHYGLRKLAGHKHMDAFLDDIFNGCGEKVRDEILRMAAADRTDIRVATEEYLARMAEDGTDQSLWDRIVTAFRNLLRKLGFCLEIGTRELRGILAASRKNLIGIAEPTVIQTARGDLELSCGYGRAVLRRQGVETDVTSLLERMRKAGISPASLGQEDWKAVFNGGIILPGGRKLMAVREPAGYGMRISGVSPGSTREGHHHHHH	soluble
MSKFFINPEVLEKYSQKLAEHKSSVNHVRDLVAQADVSDESWGIVGLFVKQSYTEMLGDFKDLLKDMSDGLDSASDKMMSATRAYREIEEENRRILVEITRRINAAKIKNITS	not soluble
MKINWTEVKEKIRPQISKPSYETWFTNTTVYLEDDILTIYCPNEFARDWLESHYKELVFNTLREMFNTTFEIQFDLCNGEPSNLKDVQKEKLSSWDEVKKALRPKIAEKTFMTWIRNTNATIKDNKVIIFCEDAFHRDLLEGEYKNIISSTVQKITDEEYQIWFEIESSATSNAQVHHVKNNQRTSGQEESKTIWNKIKDKIQLKISRPSYETWVKETTARINEDSLIIYFENEFQQEWVKKSYKDLISQIAKELTGNTYEIQFELKSNTTSNNEKSTIKDITSELGEQFKVSNNSLKYNDVDESNKRIRALEEKIMNLEKVIGTLVEKLDAVELKTQLEKLEHHHHHH	not soluble
MAIYSFKMENISRGEGQSSVNSAAYRHRKVFFDNRTGEVCGRKTAHKKDLAFAQIFAPENTPSDLIVDSETLWNAVEASEKRKDARLAKEFKIALPAELTPEQSIELTKAFVLEHFTKQGIITDVVIHDINGHNPHIHIMGTTREVLSTGFGKKVREWDKPETLDSWRKGWQNICNEFLDLYGHDERIDHRSIRVQYKEALEQATAAATNEEKAIWLAKAIETNRDPILHIPRDRWGTLAAQEQRAAEQAIRDEQKKEAVEAYFTFKDLPLDIVVDVASFRVHALAEPEEIVIPDNTGKGSSTGSQKPVLVAPVPHTRTTLKTPSTSTARTLKRAPVKVKRKKVEPRQSGVFKRFTLLVVDYIREKFVWAKKKPVPVSVDAEHDERIAENYVFDEVQGIYVPRAEHERRARFNSDTYSPTPDEIRRFPRRPLKPDQANNTLDYIPTFSWDRKPSVLQLKPSGYRDKELEHHHHHH	not soluble
MFAPSTVYTYGHHGSGTDEDDGQQVMPGMDNGDGQCMVCGDRSAGKHYGVMACYGCKGFFRRTIRSQQTYTCRFTQKCAIDKDQRNACRYCRFQRCLTVGMEPEAIRPDRDVIGKQKNPRKKKMKSDTNSGSIDASLPSPNGCDSPVSNNEDVILSFLLDVEDQATCGNNHITMPIGISMMMKNDPDFDVSTLFHSQYVRNQESFPITYAVGRTASVEQLIAALRRYVLSAVHWIDALFNLAHLTEIHDKTTLLKSVIGPFTIFNIAARTAQISDGDLICLCNKSTINRQPARHLLDTNLVGNNFVGRVIDDLVFPTKKLALTNPEITILSALIILDPDARGLSQETSQALLGIRDRVQNALFNLIRDNSNNMTSVTSRFGNLLLLFPPLAKLSSLIGENVQLAKMFGIPIDSLLVELYVDADSPELISQGSHARERSDVSTQTASLEGASASMTPDVTSSEFVKMEQNESPSSSEEPMCIGAPATSSANAVATNLAADLLGLLPNFDATGLDLASAAAAAATSVNYSHFYGFGNLGGSLDDSSSSGTGSVGSFAPHSAPPISNNVNPFAVHGFFDNSAPNTGVVHNQPFRFV	not soluble
MGSDKIHHHHHHMVVLMTKPGTSDFVWNGIPLSMELNLWNIKEYSGSVAMKFDGEKITFDADIQNLSPKEPERYVLGYPEFYYGYKPWENHTAEGSKLPVPVSSMKSFSVEVSFDIHHEPSLPLNFAMETWLTREKYQTEASIGDVEIMVWFYFNNLTPGGEKIEEFTIPFVLNGESVEGTWELWLAEWGWDYLAFRLKDPVKKGRVKFDVRHFLDAAGKALSSSARVKDFEDLYFTVWEIGTEFGSPETKSAQFGWKFENFSIDLEVRE	not soluble
QIDYRDVFIEFLTTFKGNNNQNKYIERINELVAYRKKSLIIEFSDVLSFNENLAYEIINNTKIILPILEGALYDHILQLDPTYQRDIEKVHVRIVGIPRVIELRKIRSTDIGKLITIDGILVKVTPVKERIYKATYKHIHPDCMQEFEWPEDEEMPEVLEMPTICPKCGKPGQFRLIPEKTKLIDWQKAVIQERPEEVPSGQLPRQLEIILEDDLVDSARPGDRVKVTGILDIKQDSPVKRGSRAVFDIYMKVSSIEVSQKVLDEVIISEEDEKKIKDLAKDPWIRDRIISSIAPSIYGHWELKEALALALFGGVPKVLEDTRIRGDIHILIIGDPGTAKSQMLQFISRVAPRAVYTTGKGSTAAGLTAAVVREKGTGEYYLEAGALVLADGGIAVIDEIDKMRDEDRVAIHEAMEQQTVSIAKAGIVAKLNARAAVIAAGNPKFGRYISERPVSDNINLPPTILSRFDLIFILKDQPGEQDRELANYILDVHSGKSTKNIIDIDTLRKYIAYARKYVTPKITSEAKNLITDFFVEMRKKSSETPDSPILITPRQLEALIRISEAYAKMALKAEVTREDAERAINIMRLFLESVG	soluble
MGSDKIHHHHHHMKQELALFIKKIIDLPAAEEKKLLAITRVYKVPKGDFYIQIGQIPKKFAFVAKGLFRYVYIDSKGNEFTKNFVPENNFALAYSSMIRHEVSKMAIEALEDSIICEIDYTDWLTLKKGNACWNIFLITILENAFTIKENRERDLLLLDAEQRYETFRQEFPALETRVKQHLIASYLGISPVSLSRIRKKRT	not soluble
VMGNEYPDWIWGLSTTLRYKDWTLGISLDGRVGGMAYSRTEQTMWNTGVHPDSDNKWRYDEVVNGKKNYVGQGVKVVSGKVEYDTTGKIVSDTRVFAPNDTQVSYESYIKNYNPWSGGKVYQNVHDCTFLKLRELSLLYTMPKSVCEKIHMKGVTLGLIGQNLLIWMKEFKYADPDVDSDDLNSPSMRYVGFNVKFDL	not soluble
MSLTVTIKDVAKKANVAPSTVSRVIADNPSISEKTKRRVRKVMSELGYHPNLNARSLANQTTKTIGLVMPSSANKAFQNPFFPEVIRGISSFAHVEGYALYMSTGETEEEIFNGVIKMVQGRQIGGIILLYSRENDRIIQYLNEKNFPFVLIGKPYDKKDKITYVDNDNYTAAREVAEYFISLGHKRIAFIGGGSDLLVTKDRLAGMSDALKLADIQLPSEYIFHLDFSRESGQQAVEELMGLKEPPTAIMATDDLIGLGVLSALTAKGISVPKDVSLVSFNNVLLSEIASPPLTTVDVNIYQLGYEAAKALVDKVEHSESSSKCIVIPHKLLKRQTCEGHHHHHH	soluble
AADITVASYNIHKGVGTDRRRDLRRTAAVIAELDADLVALQEADRRFGDRAGLLDLEHLKDETGLVPVKVEGRGRAHGWHGNLLLVRDAEVEEVQKIVLPSFEPRGALMIDMMIRGRPLRVIAAHLGLLPASRAAQTRHLLERIEASTPRPTLLMGDLNEWRGTGAAMGHLARHFTGGVMVRSFPSRFPILALDRLMTCKHGQLHDVSTHDTPLARRASDHLPIKARLHLP	not soluble
